Results from the supplement of paper PMC10567573.
± gives the standard deviation.

Assay: protein stability index of a GFP-peptide fusion (GPS, HEK-293T) (PSI 1-6); higher = more stable
[1] = treatment: DMSO, c terminus: a fixed tail appended
[2] = treatment: MLN4924 1 uM, 8 h, c terminus: a fixed tail appended
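Also: 24-mer peptide tiles fused after GFP, lentivirally expressed, FACS-sorted into six equal bins by GFP/DsRed ratio, decoded by Illumina sequencing, PSI is the read-weighted mean bin number.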

Sequence | protein stability index [1] | protein stability index [2] | protein stability index (treatment: DMSO, c terminus: native) | protein stability index (treatment: MLN4924 1 uM, 8 h, c terminus: native)
MASRKTKKKEGGALRAQRASSNVF [MYL5] | 4.13 ± 0.15 | 4.05 ± 0.25 | – | –
RAKLDELEGALHQAKEELARMLRE [KRT71] | 2.97 ± 0.36 | 3.7 ± 0.33 | – | –
GSMEALNLKQLRKRGSIPTSLTAL [PPFIA4] | 3.11 ± 0.2 | 3.11 ± 0.22 | – | –
RRVHLTEDQWGKGTLTPRMTTDFD [TRIM9] | 3.92 ± 0.13 | 4 ± 0.18 | – | –
SAFPFSDKLGELSDKIGSTIDDTI [CLINT1] | 3.67 ± 0.2 | 3.81 ± 0.39 | – | –
KYNSARADFEQKMLDSALRFQAME [FCHO1] | 3.5 ± 0.074 | 3.48 ± 0.27 | – | –
VAMDTEFPGVVARPIGEFRSNADY [CNOT7] | 3.73 ± 0.38 | 3.78 ± 0.37 | – | –
EMEKSFREEEKTFWKKYRTFWKED [CCDC70] | 3.77 ± 0.31 | 3.67 ± 0.35 | – | –
QYLEEERHMREENLRLQRKLQREM [CCDC6] | 4.24 ± 0.22 | 4.16 ± 0.42 | – | –
RNLSYTCRANRNCPIDQHHRNQCQ [NR2F2] | 3.32 ± 0.1 | 3.36 ± 0.24 | – | –
GISTGHWSGEVKDKNVQVVELPIV [FUT8] | 3.8 ± 0.31 | 3.9 ± 0.37 | – | –
IVIQTYYRQWHAKIFVENLRRQKS [IQUB] | 2.453 ± 0.011 | 3.12 ± 0.52 | – | –
IRKKLKDSGDVSNVIEKVKCILKT [RHOBTB3] | 3.1 ± 0.51 | 2.72 ± 0.94 | – | –
SLENTLTESEARYSSQLSQVQSLI [KRT33B] | 3.05 ± 0.23 | 3.11 ± 0.46 | – | –
NEEETPSCMASLWTAPLVMRTTNL [CDC25A] | 3.22 ± 0.18 | 3.3 ± 0.11 | – | –
HPWKWSNGKEFNNWFNVTGSDKCV [CD69] | 2.58 ± 0.53 | 2.46 ± 0.17 | – | –
YIMTRDYLTVKVWDLNMENRPIET [PPP2R2B] | 2.16 ± 0.5 | 2.45 ± 0.26 | – | –
GWILIDRCGKHFGTILNYLRDGAV [KCTD10] | 3.08 ± 0.41 | 2.38 ± 0.52 | – | –
EERERIERVRRIHIKRPDDRAHLH [KCTD10] | 4.43 ± 0.18 | 4.54 ± 0.23 | – | –
SPYFHDQVLLKGMTSISLPSVMDP [ZBTB22] | 3.03 ± 0.3 | 3.12 ± 0.28 | – | –
CLTLTPRPATEAELLTCHSAEYVG [HDAC6] | 3.48 ± 0.16 | 3.43 ± 0.16 | – | –
QWSSDVAPTSTCRTSVGVAVLGGF [KLHL20] | 2.69 ± 0.58 | 2.71 ± 0.86 | – | –

Sequence | protein stability index [1] | protein stability index [2] | protein stability index (treatment: DMSO, c terminus: native) | protein stability index (treatment: MLN4924 1 uM, 8 h, c terminus: native)
EVLVKSNNLTDRIVVIPGKVEEVS [CARM1] | 3.66 ± 0.19 | 3.8 ± 0.43 | – | –
RLRGKLRAEIENLHRTFDPHFLRV [MOG] | 2.48 ± 0.18 | 2.44 ± 0.28 | – | –
DVHHGQGTQFTFDQDPSVLYFSIH [HDAC6] | 2.04 ± 0.34 | 2.02 ± 0.34 | – | –
APVTFRHHRYDDLVRTLYKVQNEC [CPN1] | 2.62 ± 0.065 | 2.83 ± 0.12 | – | –
ITTPIIDTFKVPKEMFTVGCCVFA [SLC6A17] | 2.67 ± 0.59 | 2.86 ± 0.55 | – | –
WQRQMDQPQDRNQALGTHRPVNKL [RASAL3] | 4.39 ± 0.35 | 4.49 ± 0.14 | – | –
LHREVRSTPLTATPGGRGDMKYGI [VTI1B] | 3.72 ± 0.24 | 3.67 ± 0.12 | – | –
PSSMDLLIQDSPDSSTSPKGKQPT [NANOGP8] | 5.2 ± 0.2 | 5.3 ± 0.18 | – | –
SNLLSRFTRNEFNLESKSTIGVEF [RAB11A] | 2.36 ± 0.31 | 2.72 ± 0.49 | – | –
EKETMQFLNDRLANYLEKVRQLER [KRT36] | 2.87 ± 0.38 | 2.85 ± 0.32 | – | –
KDEWHKVFDLPESLGGIRACTLTV [KLHL13] | 2.89 ± 0.63 | 2.89 ± 0.83 | – | –
NNSIKDLTDGHFENILADNSVNDQ [SERPINB5] | 5.32 ± 0.12 | 5.26 ± 0.25 | – | –
GLKADTLKERYQKIGDTKRNTPIE [CSNK1G1] | 4.36 ± 0.26 | 4.53 ± 0.12 | – | –
ANDYKDTLGKGSSLSAPSKKTSR [KRT71] | – | – | 5.26 ± 0.32 | 5.12 ± 0.47
NHEALRQAKQEMNESRRQIQSLTC [PRPH] | 4.47 ± 0.18 | 4.38 ± 0.15 | – | –
FSRAPVSALPLAPNHLGGGAVVLG [STX5] | 2.81 ± 0.11 | 2.98 ± 0.17 | – | –
FLPHHIMVKIFRLLPTKSLVALKC [FBXO34] | 2.76 ± 0.39 | 2.29 ± 0.74 | – | –
AKLVDLPCVIESLRTLDKKTFYKT [TAF7L] | 2.52 ± 0.47 | 2.18 ± 0.42 | – | –
IETYGPHVPELEMLGRLGYLNHVR [MNAT1] | 2.4 ± 0.1 | 2.62 ± 0.19 | – | –
SLLLTPQENESLFTFLGKKCVTMS [WASL] | 2.45 ± 0.15 | 2.5 ± 0.4 | – | –
DFHQGLLSFYNARTKQVLHTFKTR [FSD1] | 2.2 ± 0.16 | 2.28 ± 0.31 | – | –
GYQRKCYFISTVKRSWTSAQNACS [CD69] | 2.46 ± 0.66 | 1.85 ± 0.59 | – | –
